Laboratory results published in the supplement of paper PMC7125110.
± gives the standard error. This sample holds only a part of the variants without activity.

B1: glmS ribozyme (parent)
chain: AUAAAAGCGCCAGAACUACAGAAAUGUAGUUGACGAGGAGGAGGUUUAUCGAAUUUUCGGCGGAUGCCUCCAAA

Columns and labels:
Conditions in all cases: with glucosamine-6-phosphate
glucosamine-6-phosphate [1] = variants of: B1; experiment: self-cleavage kobs at 640 uM GlcN6P; higher = faster cleavage; RNA array
In short: (§1)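 Tiles bearing barcoded ribozyme variants, transcribed in situ by E. coli RNA polymerase on sequenced MiSeq chips, were imaged over ~14 h at 37 °C using a hybridised Cy3 probe. Glucosamine-6-phosphate was supplied at 40 μM to 10 mM in HEPES/KCl/Mg(OAc)2 buffer. kobs came from one- or two-exponential decay fits to normalised per-tile medians, and weighted Michaelis–Menten fits then provided kcat and KM.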

glucosamine-6-phosphate [2] = variants of: B1; experiment: self-cleavage kobs at 2500 uM GlcN6P; higher = faster cleavage; RNA array
In short: as §1

glucosamine-6-phosphate [3] = variants of: B1; experiment: self-cleavage kobs at 10000 uM GlcN6P; higher = faster cleavage; RNA array
In short: as §1

| Variant | self-cleavage kobs at 640 uM GlcN6P (glucosamine-6-phosphate [1]) | self-cleavage kobs at 2500 uM GlcN6P (glucosamine-6-phosphate [2]) | self-cleavage kobs at 10000 uM GlcN6P (glucosamine-6-phosphate [3]) |
| --- | --- | --- | --- |
| G9A A36G A39C C70G | < 1e-05 s⁻¹ | < 1e-05 s⁻¹ |  |
| C11G C50G C61U | 7.22e-05 ± 3.5e-05 s⁻¹ | 6.44e-05 ± 2.1e-05 s⁻¹ |  |
| C8U G32C U45C | < 1e-05 s⁻¹ | < 1e-05 s⁻¹ |  |
| G9U U47G C68A | < 1e-05 s⁻¹ |  |  |
| C10U G32C G62U | < 1e-05 s⁻¹ | < 1e-05 s⁻¹ |  |
| G7U G37A A39C | < 1e-05 s⁻¹ | < 1e-05 s⁻¹ |  |
| G9U A14U C16A G32U A36G | < 1e-05 s⁻¹ |  |  |
| G9C G29A G62A | < 1e-05 s⁻¹ |  |  |
| G7U U30C U45A C71G | < 1e-05 s⁻¹ |  |  |
| C8G A12U G43A C67A | < 1e-05 s⁻¹ | < 1e-05 s⁻¹ |  |
| G9C A42U U47A U57G | < 1e-05 s⁻¹ |  |  |
| G9C G37C U46C C50G | < 1e-05 s⁻¹ | < 1e-05 s⁻¹ |  |
| C10A G44A G59U | < 1e-05 s⁻¹ |  |  |
| C10U C16U C71G | 6.17e-05 ± 2.9e-05 s⁻¹ |  |  |
| C11A A12U U47A | 0.000122 ± 2.6e-05 s⁻¹ |  |  |
| C8G C11U A36U | < 1e-05 s⁻¹ | < 1e-05 s⁻¹ |  |
| C10G C61G A64U | < 1e-05 s⁻¹ | < 1e-05 s⁻¹ |  |

| Variant | self-cleavage kobs at 640 uM GlcN6P (glucosamine-6-phosphate [1]) | self-cleavage kobs at 2500 uM GlcN6P (glucosamine-6-phosphate [2]) | self-cleavage kobs at 10000 uM GlcN6P (glucosamine-6-phosphate [3]) |
| --- | --- | --- | --- |
| C11A G41A U49G G63U | < 1e-05 s⁻¹ | < 1e-05 s⁻¹ |  |
| C11A A53U U69C C71U | 0.000106 ± 4.9e-05 s⁻¹ | 5.97e-05 ± 2.3e-05 s⁻¹ |  |
| C11A U30G C34U C50G | 0.000134 ± 2.8e-05 s⁻¹ |  |  |
| G9U A12C G51C C67U | < 1e-05 s⁻¹ | < 1e-05 s⁻¹ |  |
| C11A A14U A15G G35C U45A G60U | < 1e-05 s⁻¹ |  |  |
| G9U U30C U57A | < 1e-05 s⁻¹ | < 1e-05 s⁻¹ |  |
| C10G C68G C70U | 9.88e-05 ± 3.1e-05 s⁻¹ |  |  |
| C8U C70G | 0.0011 ± 0.00055 s⁻¹ |  |  |
| C8A U47C G51A | < 1e-05 s⁻¹ | < 1e-05 s⁻¹ |  |
| C11G A15C U30G A52U | < 1e-05 s⁻¹ |  |  |
| G9C A12C C58U | < 1e-05 s⁻¹ | < 1e-05 s⁻¹ |  |
| C8A A53U G60U | < 1e-05 s⁻¹ | < 1e-05 s⁻¹ |  |
| C10A G51A | < 1e-05 s⁻¹ |  | < 1e-05 s⁻¹ |
| G9A C16U U30G G38U | < 1e-05 s⁻¹ | < 1e-05 s⁻¹ |  |
| C8U A12G G66U | < 1e-05 s⁻¹ |  |  |
| G7U G32C C34U U55C | < 1e-05 s⁻¹ | < 1e-05 s⁻¹ |  |
